These results are taken from paper doi:10.1101/2019.12.19.882696.

For the assay, the target named is Cys-OmpX labelled with Alexa Fluor 488 (E. coli) (UniProt P0A917). The assay is described as follows: MST.

What is called Kd is the concentration at which binding is half-saturated. The low end stands for higher affinity, the high end for lower affinity. For the substance “E. coli SurA wild type (mature, tag cleaved) (from UniProt P0ABZ6 21-428) (natural protein)”, the Kd came out at 800 nM.
